Measured values from the supplement of paper PMC9732359.
± gives the uncertainty stated by the source.

Experiment: protein stability index of a GFP-peptide fusion (yeast GPS) (PSI 1-4); higher = more stable; sorted into four equal gates, so the index is relative within each strain
Outline: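 Sequencing reads from sorted gates were used to score each peptide. The library consisted of tiled 17-residue yeast protein peptides fused downstream of GFP on a Cherry-expressing plasmid, pooled and carried in yeast. Mid-log cultures in leucine-free medium were split into four equal gates by GFP/Cherry ratio, and each gate's plasmids were PCR-amplified and Illumina-sequenced. The protein stability index adds up, over all gates, the read frequency multiplied by the gate number.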

| Sequence | protein stability index (doa10∆) | protein stability index (pdr5∆) | protein stability index (san1∆) | protein stability index (ubr1∆) |
| --- | --- | --- | --- | --- |
| FFEMLISKSLTFSQESG [RRI2] | 2.12 ± 0.082 | 1.45 ± 0.059 | 1.25 ± 0.12 | 1.66 ± 0.13 |
| DVILDYQTKKFYDYIKE [REC8] | 2.4 ± 0.06 | 2.58 ± 0.052 | 2.55 ± 0.071 | 2.92 ± 0.051 |
| SNGFNNVTFGSKKDPRI [YMR153W/NUP53] | 2.77 ± 0.048 | 2.74 ± 0.059 | 2.89 ± 0.045 | 2.87 ± 0.046 |
| KQQPTMQANKLDSQETP [SWI3] | 2.95 ± 0.12 | 2.98 ± 0.073 | 2.92 ± 0.081 | 2.95 ± 0.071 |
| AFYQKGNKLVELMRIIS [SMC1] | 1.59 ± 0.27 | 1.15 ± 0.19 | – | 1.38 ± 0.25 |
| IVLLDDEGKEIPATIFD [TAF14] | 2.82 ± 0.06 | 3.07 ± 0.048 | 3.04 ± 0.035 | 3.06 ± 0.05 |
| QKLDILVAKLKKVKSAS [SMC4] | 2.64 ± 0.076 | 2.25 ± 0.051 | 2.61 ± 0.071 | 2.73 ± 0.045 |
| TNLQRNVDRLYKLNVRS [NUT2] | 3.66 ± 0.19 | 3.62 ± 0.2 | 3.01 ± 0.18 | 3.49 ± 0.073 |
| KSLAMEHKSQVVLYNYY [CSN12] | 1.19 ± 0.053 | 1.34 ± 0.071 | 1.32 ± 0.11 | 1.55 ± 0.035 |
| EDHVEDHRKRKKSKIQL [LIN1] | 3.17 ± 0.093 | 3.25 ± 0.082 | 3.12 ± 0.059 | 3.16 ± 0.052 |
| KFKLLNGLAIRRAAYGV [RPS3] | 2 ± 0.046 | 2.15 ± 0.047 | 1.88 ± 0.062 | 1.86 ± 0.048 |
| LDRELLKPSMSVALHRH [RPT3] | 2.98 ± 0.082 | 2.71 ± 0.1 | 3.07 ± 0.071 | 2.7 ± 0.16 |
| PAAESKIFTPNLLQISA [SNF5] | 1.72 ± 0.12 | 2.04 ± 0.11 | 2.09 ± 0.14 | 1.55 ± 0.099 |
| ELPTQLALEIIVRPAKG [RRP46] | 1.52 ± 0.041 | 1.57 ± 0.044 | 1.49 ± 0.079 | 1.84 ± 0.045 |
| IIKMTIPYAAKLLFQEL [RET1] | 2.18 ± 0.1 | 2.08 ± 0.12 | 1.75 ± 0.22 | 1.9 ± 0.073 |
| FDDIFQVSEVDPGRYNK [RPB8] | 3.06 ± 0.14 | 2.75 ± 0.12 | 2.57 ± 0.18 | 2.95 ± 0.097 |
| GGFEYFLQPLLLVGLIK [NUT1] | 1.46 ± 0.056 | 1.52 ± 0.063 | 1.37 ± 0.11 | 1.87 ± 0.12 |
| KLNVDQFISSRQFEVKQ [POP1] | 2.99 ± 0.053 | 3.08 ± 0.055 | 3.01 ± 0.041 | 2.97 ± 0.059 |
| AIIRLHPSIYTQVFNIL [POP1] | 2.02 ± 0.051 | 1.22 ± 0.047 | 1.2 ± 0.09 | 1.22 ± 0.036 |
| GQQTAQPQQSTIGGGLF [YGR119C/NUP57] | 2.88 ± 0.072 | 3.19 ± 0.052 | 2.93 ± 0.053 | 3.28 ± 0.067 |
| KSMNKSAINQYNRRQDK [SNF2] | 2.26 ± 0.075 | 2.63 ± 0.082 | 2.44 ± 0.058 | 2.48 ± 0.083 |
| LPEILNVLCVNIKSNDF [ECM29] | 1.56 ± 0.046 | 1.58 ± 0.047 | 1.37 ± 0.088 | 1.58 ± 0.035 |
| VMNTKLLQEGGSLSGNS [ESC2] | 3.27 ± 0.14 | 3.44 ± 0.14 | 3.13 ± 0.099 | 3.07 ± 0.19 |
| VDLIEKFLRYNPLEKRD [RPB10] | 2.91 ± 0.14 | 3.27 ± 0.12 | 3.23 ± 0.071 | 3.11 ± 0.041 |
| NVFARLSRLLSLWEVFQ [RPC82] | 1.78 ± 0.16 | 2.06 ± 0.13 | 2.79 ± 0.14 | 2.38 ± 0.067 |
| KVLARQQLQVLARYLKM [FAS2] | 1.41 ± 0.081 | 1.47 ± 0.083 | 1.75 ± 0.15 | 2.1 ± 0.12 |
